Experimental data reported in US7049400.

Molecular target: MD9 (mammalian version of D9 mutant, EGFP-DEVD) (Aequorea victoria (Water jellyfish) (Mesonema victoria)) [GFP: P42212]
Test: cell-based or functional assay

activated caspase-3 in HeLa cells induced to apoptosis by TNFα and cycloheximide (from UniProt P42574 29-277) (enzyme)
decrease in relative fluorescence intensity of mutant GFP in comparison to wild type GFP: 50%
